T1: amphyphisin SH3 (AMPH_HUMAN), P49418
T1 chain: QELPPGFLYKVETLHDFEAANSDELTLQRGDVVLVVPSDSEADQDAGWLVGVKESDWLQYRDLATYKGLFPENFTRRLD


Columns and labels:
[1] = target: endophilin SH3 (SH3G2_HUMAN), Q99962; assay: SPOT array
[2] = target: T1, amphyphisin SH3 (AMPH_HUMAN), P49418; assay: SPOT array

normalised SPOT signal, Boehringer light units (BLU); mean over the file's lines of this peptide [1]	normalised SPOT signal, Boehringer light units (BLU); mean over the file's lines of this peptide [2]	Binder
77.2	51	SPPELKRPRLDENK [Q13112 538-551]
69.8	1370	SQGPLQRPSRLVFT [Q9UK00 141-154]
1880	1270	SPPVPPRPPSSGPP [Q9UKN7 661-675]
190	2430	SPGVLRRPRRRPAA [Q9Y469 13-26]
53.9	21.1	SQEILRRPIVASEL [Q9UHW3 40-53]
4830	1290	SPRLPRRPTVESHH [O94883 131-144]
35.9	15.7	SPDKFKRPTPPPSP [Q16204 419-432]
3230	106	SQGPPPRPGKPEGP [Q9UCT9 1-14]
2110	120	SPIKPKRPFVESNV [Q9ULS2 141-154]
33	52.9	SPQEPKRPSQLPSP [O14686 4038-4051]
112	66.5	SPTVPIKPPSIPNG [Q13557 471-485]
2540	44.7	SQALPPRPPPPAPV [Q13330 692-706]
102	621	SQAFIYRPIRQRVY [Q9NU43 22-35]
69.3	56.4	SPPSPDRPPHSQTS [Q03164 2117-2131]
1210	1010	SPRALWRPPRRRTQ [O94807 430-443]
71.5	120	SSELIERPSKKDGF [Q9H0X9 173-186]

normalised SPOT signal, Boehringer light units (BLU); mean over the file's lines of this peptide [1]	normalised SPOT signal, Boehringer light units (BLU); mean over the file's lines of this peptide [2]	Binder
22000	1780	SPSVPKRPKLPAPT [P18887 266-279]
1520	713	SPVLPARPPPPPLP [O75412 1038-1052]
103	120	SQGPPPRPGKPEGQ [Q04118 68-81]
437	587	SPQAPRRPLPQVAT [Q13421 406-419]
117	228	SPKSPGRPWKSVSE [P01042 611-624]
90.9	482	SPDSLSRPRRTVFT [Q9P217 544-557]
4080	399	SPVLPARPPPPPLS [O00508 1114-1128]
319	62.1	SPEAPRRPKQRPAP [O00294 24-37]
5840	547	SPGPPYRPPSQRLR [Q8WVQ2 69-83]
56.3	31.7	SPVHLRRPQSPGAS [Q9Y556 324-337]
754	568	SPGFPARPGRGRPY [Q9UQ90 30-43]
1800	72.6	SSGRPGRPPGPAAA [Q99491 157-171]
67.1	47.9	SPSVPAKPPLAEFE [Q15742 478-492]
132	103	SQGPPPRPGKPEGS [Q04118 215-228]
150	3220	SSGSPDRPGRRGRR [Q9BXQ6 174-187]
